T1: OR-1 (UniProt Q62755 SEQ:1-446)
T1 sequence: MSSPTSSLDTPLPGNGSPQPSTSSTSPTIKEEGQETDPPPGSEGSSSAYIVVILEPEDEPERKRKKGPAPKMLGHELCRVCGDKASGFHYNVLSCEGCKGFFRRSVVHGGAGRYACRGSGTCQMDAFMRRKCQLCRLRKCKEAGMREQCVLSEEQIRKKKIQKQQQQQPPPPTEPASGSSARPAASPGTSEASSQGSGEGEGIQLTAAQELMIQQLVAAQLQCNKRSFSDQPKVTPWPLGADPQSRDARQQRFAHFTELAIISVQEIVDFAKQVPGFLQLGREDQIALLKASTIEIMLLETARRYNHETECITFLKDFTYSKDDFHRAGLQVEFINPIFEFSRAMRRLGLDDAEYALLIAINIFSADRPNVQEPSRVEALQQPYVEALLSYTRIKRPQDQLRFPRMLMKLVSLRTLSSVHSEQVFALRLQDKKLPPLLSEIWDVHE

T2: OR-1/RXR heterodimer (UniProt Q62755;Q05343 Q62755:1-446,Q05343:1-467)
T2 sequence 1: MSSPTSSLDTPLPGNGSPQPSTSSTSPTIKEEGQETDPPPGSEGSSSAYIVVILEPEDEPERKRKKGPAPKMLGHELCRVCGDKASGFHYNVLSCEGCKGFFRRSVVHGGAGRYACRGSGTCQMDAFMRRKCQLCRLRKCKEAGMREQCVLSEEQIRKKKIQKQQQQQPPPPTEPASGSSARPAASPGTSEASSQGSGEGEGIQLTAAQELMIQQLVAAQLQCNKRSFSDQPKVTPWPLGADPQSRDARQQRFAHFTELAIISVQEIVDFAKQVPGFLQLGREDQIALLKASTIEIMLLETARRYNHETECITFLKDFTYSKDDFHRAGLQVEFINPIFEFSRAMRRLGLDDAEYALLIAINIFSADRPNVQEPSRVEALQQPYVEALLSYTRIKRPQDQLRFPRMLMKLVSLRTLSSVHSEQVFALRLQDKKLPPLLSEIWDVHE
T2 sequence 2: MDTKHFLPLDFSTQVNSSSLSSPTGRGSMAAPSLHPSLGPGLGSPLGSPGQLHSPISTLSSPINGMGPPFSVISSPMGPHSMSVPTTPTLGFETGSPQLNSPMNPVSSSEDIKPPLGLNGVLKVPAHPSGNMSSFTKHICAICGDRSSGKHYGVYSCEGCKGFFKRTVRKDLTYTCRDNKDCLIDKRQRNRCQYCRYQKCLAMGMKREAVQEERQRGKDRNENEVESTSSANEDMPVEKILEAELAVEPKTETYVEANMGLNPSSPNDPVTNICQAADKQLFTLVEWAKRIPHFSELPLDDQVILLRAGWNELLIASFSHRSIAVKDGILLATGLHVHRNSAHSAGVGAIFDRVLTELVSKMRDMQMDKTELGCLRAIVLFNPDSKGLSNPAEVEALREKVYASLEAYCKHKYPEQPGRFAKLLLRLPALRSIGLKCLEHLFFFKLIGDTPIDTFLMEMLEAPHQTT

T3: RXR (RXRalpha) (UniProt Q05343 Q05343:1-467)
T3 sequence: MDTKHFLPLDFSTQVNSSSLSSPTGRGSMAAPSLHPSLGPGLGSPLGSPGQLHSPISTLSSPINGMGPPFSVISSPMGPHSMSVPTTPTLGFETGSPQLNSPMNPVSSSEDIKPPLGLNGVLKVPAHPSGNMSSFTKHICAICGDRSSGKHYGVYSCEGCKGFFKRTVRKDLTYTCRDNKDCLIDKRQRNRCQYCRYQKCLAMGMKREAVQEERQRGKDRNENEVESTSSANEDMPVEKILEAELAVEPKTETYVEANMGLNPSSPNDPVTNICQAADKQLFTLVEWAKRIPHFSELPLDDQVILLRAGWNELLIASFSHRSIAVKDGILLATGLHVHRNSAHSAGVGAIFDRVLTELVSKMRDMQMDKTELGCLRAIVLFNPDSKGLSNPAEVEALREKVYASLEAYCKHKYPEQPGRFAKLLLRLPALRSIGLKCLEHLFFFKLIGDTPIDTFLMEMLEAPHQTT


Columns and labels:
OR-1 [1] = target: T1, OR-1; assay: EMSA; OR-1 alone; conditions: tags: none; TNT reticulocyte lysate; label: 32P
Procedure: (§1) Gel shifts were performed using in vitro-translated OR-1 and RXR with the commercially-available TNT™-coupled reticulocyte lysate system (Promega, Madison USA). Proteins were incubated on ice for 15 min with 4 μg of poly (dI-dC) and with unlabelled competitor DNA where indicated in a solution comprising 100 mM KCl; 10 mM Hepes, pH 7.6; 1 mM dithiothreitol; 1 mM EDTA; 10% (wt./vol) glycerol, before addition of 0.5 ng of a ^32P-end labelled oligonucleotide probe. The reaction mixtures were incubated for a further 10 min at 22° C. before electrophoresis at 200V and 4° C. in pre-run 4% polyacryliamide/0.25 TBE (0.089 m tris-borate pH 8.3, 0.025 EDTA) gels. The following oligonucleotides and their complements were used as probes: DR0 […] (SEQ ID NO:3) DR1 […] (SEQ ID NO:4) DR2 […] (SEQ ID NO:5) DR3 […] (SEQ ID NO:6) DR4 […] (SEQ ID NO:7) DR5 […] (SEQ ID NO:8) DR6 […] (SEQ ID NO:9)
(§2) The appearance of this complex depends on the presence of RXR and is inhibited by a 10-fold excess of the specific DNA target element, but not by a 100-fold excess of an unrelated DNA element—see FIG. 5B, lane 7)

OR-1 [2] = target: T1, OR-1; assay: EMSA; OR-1 alone; conditions: tags: none; TNT reticulocyte lysate; label: 32P; remark: listed apart in the source
Procedure: as §1

OR-1/RXR heterodimer = target: T2, OR-1/RXR heterodimer; assay: EMSA; 100 mM KCl, 10 mM Hepes pH 7.6, 1 mM EDTA, 22 C; inhibited by 10-fold excess specific DNA, not by 100-fold unrelated DNA; conditions: tags: RXR from pRRXR-T7; label: 32P
Procedure: as §1, §2

RXR (RXRalpha) = target: T3, RXR (RXRalpha); assay: EMSA; RXR alone; conditions: tags: none; pRRXR-T7, TNT reticulocyte lysate; label: 32P
Procedure: as §1, §2

Binder	binding result (OR-1 [2])	other results
DR2 (dsDNA) DNA 1: AGCTTAGGTCACCAGGTCAGTTCA DNA 2: TGAACTGACCTGGTGACCTAAGCT	–	binding result (OR-1 [1]): no binding
DR6 (dsDNA) DNA 1: AGTCAGGTCACTCGTTAGGTCAGTCA DNA 2: TGACTGACCTAACGAGTGACCTGACT	no binding	–
DR1 (dsDNA) DNA 1: AGCTTCAGGTCACAGGTCAGTTCA DNA 2: TGAACTGACCTGTGACCTGAAGCT	no binding	–
DR3 (dsDNA) DNA 1: AGTCCAGGTCACTCAGGTCAGTCA DNA 2: TGACTGACCTGAGTGACCTGGACT	no binding	–
DR0 (dsDNA) DNA 1: AGCTTCAGGTCAAGGTCAGGTTCA DNA 2: TGAACCTGACCTTGACCTGAAGCT	no binding	–
DR4 (dsDNA) DNA 1: AGTCAGGTCACTCGAGGTCAGTCA DNA 2: TGACTGACCTCGAGTGACCTGACT	–	binding result (OR-1/RXR heterodimer): binds; binding result (RXR (RXRalpha)): no binding; binding result (OR-1 [1]): no binding
DR5 (dsDNA) DNA 1: AGTCAGGTCACTCGTAGGTCAGTCA DNA 2: TGACTGACCTACGAGTGACCTGACT	no binding	–
